From patent publication US12692524B2, “Sialyltransferases and their use in producing sialylated oligosaccharides” (Chr. Hansen A/S, priority 2017, dated 2026)

B1: SiaT2: sialyltransferase of Campylobacter jejuni strain OH4384, acc. AF130466, SEQ ID NO: 10 (protein, listed as Campylobacter jejuni)
chain: MTRTRMENELIVSKNMQNIIIAGNGPSLKNINYKRLPREYDVFRCNQFYFEDKYYLGKKIKAVFFNPGVFLQQYHTAKQLILKNEYEIKNIFCSTFNLPFIESNDFLHQFYNFFPDAKLGYEVIENLKEFYAYIKYNEIYFNKRITSGVYMCAIAIALGYKTIYLCGIDFYEGDVIYPFEAMSTNIKTIFPGIKDFKPSNCHSKEYDIEALKLLKSIYKVNIYALCDDSILANHFPLSININNNFTLENKHNNSINDILLTDNTPGVSFYKNQLKADNKIMLNFYNILHSKDNLIKFLNKEIAVLKKQTTQRAKARIQNHLSYKLGQALIINSKSVLGFLSLPFIILSIVISHKQEQKAYKFKVKKNPNLALPPLETYPDYNEALKEKECFTYKLGEEFIKAGKNWYGEGYIKFIFKDVPRLKREFEKGE
B2: SiaT10: sialyltransferase of Pasteurella multocida PM70, acc. AAK02272, SEQ ID NO: 4 (protein, listed as Pasteurella multocida)
chain: MKTITLYLDPASLPALNQLMDFTQNNEDKTHPRIFGLSRFKIPDNIITQYQNIHFVELKDNRPTEALFTILDQYPGNIELDIHLNIAHSVQLIRPILAYRFKHLDRVSIQRLNLYDDGSMEYVDLEKEENKDISAEIKQAEKQLSHYLLTGKIKFDNPTIARYVWQSAFPVKYHFLSTDYFEKAEFLQPLKEYLAENYQKMDWTAYQQLTPEQQAFYLTLVGFNDEVKQSLEVQQAKFIFTGTTTWEGNTDVREYYAQQQLNLLNHFTQAGGDLFIGDHYKIYFKGHPRGGEINDYILNNAKNITNIPANISFEVLMMTGLLPDKVGGVASSLYFSLPKEKISHIIFTSNKQVKSKEDALNNPYVKVMRRLGIIDESQVIFWDSLKQL
B3: SiaT13: sialyltransferase of Streptococcus agalactiae, acc. AB050723, SEQ ID NO: 17 (protein, listed as Streptococcus agalactiae)
chain: MTNRKIYVCHTLYHLLICLYKEEIYSNLEIILSSSIPDVDNLEKKLKSKTINIHILEESSGESEELLSVLKDAGLSYSKFDSNCFIFNDATPIGRTLIKHGIYYNLIEDGLNCFTYSIFSQKLWKYYVKKYILHKIQPHGFSRYCLGIEVNSLVNLPKDPRYKKFIEVPRKELFDNVTEYQKEMAINLFGAVRVSIKSPSVLVLTQPLSIDKEFMSYNNKIETSEEQFNFYKSIVNEYINKGYNVYLKVHPRDVVDYSKLPVELLPSNVPMEIIELMLTGRFECGITHSSTALDFLTCVDKKITLVDLKDIK
B4: SiaT14: sialyltransferase of Haemophilus-somnus-2336, acc. ACA31578, SEQ ID NO: 26 (protein, listed as Haemophilus somnus)
chain: MFREDNMNLIICCTPLQVIIAEKIIERYPEQKFYGVMLESFYNDKFDFYENKLKHLCHEFFCIKIARFKLERYKNLLSLLKIKNKTFDRVFLANIEKRYIHIILSNIFFKELYTFDDGTANIAPNSHLYQEYDHSLKKRITDILLPNHYNSNKVKNISKLHYSIYRCKNNIIDNIEYMPLFNLEKKYTAQDKSISILLGQPIFYDEEKNIRLIKEVIAKFKIDYYFPHPREDYYIDNVSYIKTPLIFEEFYAERSIENSIKIYTFFSSAVLNIVTKENIDRIYALKPKLTEKAYLDCYDILKDFGIKVIDI
B5: SiaT15: sialyltransferase of Haemophilus ducreyi 35000HP, acc. AF101047, SEQ ID NO: 14 (protein, listed as Haemophilus ducreyi)
chain: MKEIAIISNQRMFFLYCLLTNKNVEDVFFIFEKGAMPNNLTSISHFIVLDHSKSECYDFFYFNFISCKYRLRGLDVYGADHIKGAKFFLERHRFFVVEDGMMNYSKNMYAFSLFRTRNPVILPGGFHPNVKTIFLTKDNPIPDQIAHKREIINIKTLWQAKTATEKTKILSFFEIDMQEISVIKNRSFVLYTQPLSEDKLLTEAEKIDIYRTILTKYNHSQTVIKPHPRDKTDYKQLFPDAYVMKGTYPSELLTLLGVNFNKVITLFSTAVFDYPKEKIDFYGTAVHPKLLDFFD
B6: SiaT16: sialyltransferase of Haemophilus ducreyi 35000HP, acc. AAP95068, SEQ ID NO: 27 (protein, listed as Haemophilus ducreyi)
chain: MLIQQNLEIYLDYATIPSLACFMHFIQHKDDVDSIRLFGLARFDIPQSIIDRYPANHLFYHNIDNRDLTAVLNQLADILAQENKRFQINLHLNLFHSIDLFFAIYPIYQQYQHKISTIQLQLYDDGSEGIVTQHSLCKIADLEQLILQHKNVLLELLTKGTANVPNPTLLRYLWNNIIDSQFHLISDHFLQHPKLQPLKRLLKRYTILDFTCYPRFNAEQKQLLKEILHISNELENLLKLLKQHNTFLFTGTTAFNLDQEKLDLLTQLHILLLNEHQNPHSTHYIGNNYLLLIKGHANSPALNHTLALHFPDAIFLPANIPFEIFAMLGFTPNKMGGFASTSYINYPTENINHLFFLTSDQPSIRTKWLDYEKQFGLMYSLLAMQKINEDQAFMCTIHN

Assay: In vivo screening in E. coli #1363/#1730 with lactose as acceptor, sialyllactose identified by TLC
Assay type: cell-based, Escherichia coli BL21(DE3)
Settings: 1.5 mM lactose, 72 to 96 hours, qualitative via TLC
Experimental: Escherichia coli BL21(DE3) #1363 and #1730 harbouring plasmids encoding for 100 sialyltransferases were grown at 30° C. in 100 ml shake flasks filled with 20 ml of mineral salts medium (Samain et al., J. Biotech. 1999, 72:33-47) supplemented with 2% (wt/vol) glucose, ampicillin 100 μg ml^−1, kanamycin 15 μg ml^−1 and zeocin 40 μg ml^−1. When the cultures reached an OD600 of 0.1 to 0.3, gene expression was induced by addition of 0.3 mM IPTG. After an incubation for one hour, 1.5 mM lactose was added to #1363 cultures whereas 1.5 mM lactose as well as 1.5 mM sialic acid was added to #1730 cultures. The incubation continued for 72 to 96 hours. Then, cells were harvested by centrifugation and mechanically disrupted in a defined volume using glass beads. Subsequently, samples were applied to thin layer chromatography (TLC) on Silica Gel 60 F254 (Merck KGaA, Darmstadt, Germany). A mixture of butanol:acetone:acetic acid:H2O (35/35/7/23 (v/v/v/v)) was used as mobile phase. For detection of the separated substances, the TLC plate was soaked with thymol reagent (0.5 g thymol solved in 95 ml ethanol, 5 ml sulfuric acid added) and heated.
In the entire screening, thirty two genes were identified to encode for α-2,3-sialyltransferases, thus producing 3′-SL. 19 enzymes synthesized 6′-SL and were depicted as α-2,6-sialyltransferases. An α-2,3- as well as an α-2,6-sialyltransferase activity could only be observed for 3 enzymes. […] The screening appeared highly accurate since the described activities of extensively characterized sialyltransferases, e. g. […] Regarding the product formation, the experimental setting allowed a semi-quantitative comparison of the screened enzymes. But to achieve deeper knowledge about their kinetic properties, the 3 potentially best performing α-2,3- and α-2,6-sialyltransferases were applied to in vitro assays.

Which “Production of sialyllactose in-vivo” value does the source give for B1 here?
The value was 3′-SL.

Which “Production of sialyllactose in-vivo” value does the source give for B2 here?
The value was 3′-SL, 6′-SL.

For B3, which “Production of sialyllactose in-vivo” value is on record?
The value was 3′-SL.

Which “Production of sialyllactose in-vivo” value does the source give for B4 here?
The value was 3′-SL.

With B5 as the molecule, how does the “Production of sialyllactose in-vivo” value read?
The value was 3′-SL.

Which “Production of sialyllactose in-vivo” value does the source give for B6 here?
Its value is 3′-SL.

Assay: In vitro sialylation of LNT by protein extracts, LST-a/-b quantified by LC-MS/MS
Assay type: biochemical
Settings: 5 mM LNT, 10 mM CMP-Neu5Ac, 16 hours, LC-MS/MS; relative quantity; n.d.: not detectable
Experimental: Escherichia coli BL21(DE3) harbouring plamids encoding for 100 sialyltransferases were grown at 30° C. in 100 ml shake flasks filled with 20 ml of 2YT medium supplemented with ampicillin 100 μg ml^−1. When the cultures reached an OD600 of 0.1 to 0.3, gene expression was induced by addition of 0.3 mM IPTG and the incubation was continued for 12 to 16 hours. Cells were harvested by centrifugation and mechanically disrupted in a defined volume of 50 mM Tris-HCl pH7.5 using glass beads. The protein extract was kept on ice until the assay started. The in vitro assay was carried out in a total volume of 25 μl including 50 mM Tris-HCl pH7.5, 5 mM MgCl2, 10 mM CMP-Neu5Ac and 5 mM LNT. The assay started with the addition of 3 μl protein extract and continued for 16 hours. Product formation was determined by mass spectrometry.
Mass spectrometry analysis was performed by MRM (multiple reaction monitoring) using a LC Triple-Quadrupole MS detection system. Precursor ions are selected and analyzed in quadrupole 1, fragmentation takes place in the collision cell using argon as CID gas, selection of fragment ions is performed in quadrupole 3. Chromatographic separation of lactose, 3′-Sialyllactose and 6′-Sialyllactose after dilution of culture supernatant 1:100 with H2O (LC/MS Grade), was performed on a XBridge Amide HPLC column (3.5 μm, 2.1×50 mm (Waters, USA) with a XBridge Amide guard cartridge (3.5 μm, 2.1×10 mm) (Waters, USA). Column oven temperature of the HPLC system was 50° C. The mobile phase was composed of acetonitrile:H2O with 10 mM ammonium acetate. A 1 μl sample was injected into the instrument; the run was performed for 3.60 min with a flow rate of 400 μl/min. 3′-Sialyllactose and 6′-Sialyllactose were analyzed by MRM in ESI positive ionization mode. The mass spectrometer was operated at unit resolution. Sialyllactose forms an ion of m/z 656.2 [M+Na]. The precursor ion of Sialyllactose was further fragmented in the collision cell into the fragment ions m/z 612.15, m/z 365.15 and m/z 314.15. Collision energy, Q1 and Q3 Pre Bias were optimized for each analyte individually. Chromatographic separation of lactose, LNT-II, LNT and LST-a or -b after dilution of particle-free biocatalysis-reaction or crude extract, respectively, 1:50 with H2O (LC/MS Grade), was performed on a XBridge Amide HPLC column (3.5 μm, 2.1×50 mm (Waters, USA) with a XBridge Amide guard cartridge (3.5 μm, 2.1×10 mm) (Waters, USA). Column oven was run at 35° C. The mobile phase was composed of acetonitrile:H2O with 0.1% ammonium hydroxide. A 1 μl sample was injected into the instrument; the run was performed for 3.50 min with a flow rate of 300 μl/min. Lactose, LNT-II, LNT as well as LST-a and -b were analyzed by MRM in ESI negative ionization mode. The mass spectrometer was operated at unit resolution. Lactose forms an ion of m/z 341.00 [M−H]. The precursor ion of Lactose was further fragmented in the collision cell into the fragment ions m/z 179.15, m/z 161.15 and m/z 101.05. LNT-II forms an ion of m/z 544.20 [M−H]. The precursor ion of LNT-II was further fragmented into the fragment ions m/z 382.10, m/z 161.00 and m/z 112.90. LNT forms an ion of m/z 706.20 [M−H]. The precursor ion of LNT was further fragmented into the fragment ions m/z 382.10, m/z 202.10 and m/z 142.00. LST-a and -b forms an ion of m/z 997.20 [M−H]. The precursor ion of LST-a and-b was further fragmented into the fragment ions m/z 290.15, m/z 202.15 and m/z 142.15. Collision energy, Q1 and Q3 Pre Bias were optimized for each analyte individually. Quantification methods were established using commercially available standards (Carbosynth, Compton, UK).
Twenty eight genes were identified to produce LST-a whereas only 6 enzymes synthesized LST-b. […] Irrespectively of the protein overexpression level, sialyltransferases that produced best were selected for determination of Km and Vmax.

Which “Relative efficacy of sialyltransferases regarding in-vitro production of sialyllacto-N-tetraoses: LST-a” value (“Relative efficacy” below) does the source give for B1 here?
Its value is 749.

For B2, which “Relative efficacy” value is on record?
Its value is 3.18 × 10^3.

With B3 as the molecule, how does the “Relative efficacy” value read?
Its value is 24.

With B4 as the molecule, how does the “Relative efficacy” value read?
Its value is 2.

With B5 as the molecule, how does the “Relative efficacy” value read?
The value was 204.

Which “Relative efficacy” value does the source give for B6 here?
Its value is 1.
